Experimental findings from US20240010721A1 are described below.

Assay [1] has as its target Human ROR1-ECD-his (human) (UniProt Q01973). The assay is described as follows: ELISA, plate coated with hROR1 ECD-his; isotype control. Background: ELISA stands for enzyme-linked immunosorbent assay.
Another assay has as its target hROR2ECD-his (human) (UniProt Q01974). Nature of the assay: ELISA, plate coated with hROR2 ECD-his; isotype control.
For assay [2], the target named is human ROR1 (hROR1) on cells (human) (UniProt Q01973). Nature of the assay: cell-based or functional assay.
Chain of human ROR1 (hROR1) on cells (human) (Q01973 30-937): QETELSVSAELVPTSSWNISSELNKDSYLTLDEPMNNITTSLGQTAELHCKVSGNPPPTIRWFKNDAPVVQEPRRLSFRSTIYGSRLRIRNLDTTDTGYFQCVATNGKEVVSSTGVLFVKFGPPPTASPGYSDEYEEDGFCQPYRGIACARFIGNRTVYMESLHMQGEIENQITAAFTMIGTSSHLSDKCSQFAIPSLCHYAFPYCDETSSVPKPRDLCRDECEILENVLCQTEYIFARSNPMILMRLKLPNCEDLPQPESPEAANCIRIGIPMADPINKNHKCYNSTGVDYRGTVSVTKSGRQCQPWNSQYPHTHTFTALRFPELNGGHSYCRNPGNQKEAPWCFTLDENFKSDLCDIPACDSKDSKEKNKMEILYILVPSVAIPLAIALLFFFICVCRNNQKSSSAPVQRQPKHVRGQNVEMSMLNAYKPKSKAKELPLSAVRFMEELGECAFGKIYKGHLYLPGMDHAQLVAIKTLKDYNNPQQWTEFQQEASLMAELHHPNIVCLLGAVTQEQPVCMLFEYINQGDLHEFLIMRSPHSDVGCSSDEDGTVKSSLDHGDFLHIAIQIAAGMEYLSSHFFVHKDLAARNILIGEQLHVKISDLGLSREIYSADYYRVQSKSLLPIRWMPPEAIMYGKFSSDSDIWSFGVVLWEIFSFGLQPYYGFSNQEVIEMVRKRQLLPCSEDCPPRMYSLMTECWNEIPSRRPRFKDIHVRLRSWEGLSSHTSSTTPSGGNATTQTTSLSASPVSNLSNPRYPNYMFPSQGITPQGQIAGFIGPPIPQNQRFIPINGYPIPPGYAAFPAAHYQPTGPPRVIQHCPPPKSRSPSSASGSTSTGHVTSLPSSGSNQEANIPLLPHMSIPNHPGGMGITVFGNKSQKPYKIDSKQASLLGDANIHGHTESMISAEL
For assay [3], the target named is cynomolgus ROR1 (cynoROR1) on CHO-K1 cells (cynomolgus). The assay is described as follows: FACS, CHO-K1-cynoROR1 cells; isotype control. In general terms: Flow cytometry measures light scatter and fluorescence of single cells or particles in a stream.
Assay [4] addresses human ROR1 (hROR1) on cells (human) (UniProt Q01973). Nature of the assay: FACS, HEK293T-hROR1 cells; isotype control.
For assay [5] the target is unchanged. Nature of the assay: FACS, A549 cells; isotype control.

Several values for one entry are separate records, joined by “and”; a condition that tells them apart may be missing. Equal entries are not always repeated.

Chain of hROR2ECD-his (human) (Q01974 34-403): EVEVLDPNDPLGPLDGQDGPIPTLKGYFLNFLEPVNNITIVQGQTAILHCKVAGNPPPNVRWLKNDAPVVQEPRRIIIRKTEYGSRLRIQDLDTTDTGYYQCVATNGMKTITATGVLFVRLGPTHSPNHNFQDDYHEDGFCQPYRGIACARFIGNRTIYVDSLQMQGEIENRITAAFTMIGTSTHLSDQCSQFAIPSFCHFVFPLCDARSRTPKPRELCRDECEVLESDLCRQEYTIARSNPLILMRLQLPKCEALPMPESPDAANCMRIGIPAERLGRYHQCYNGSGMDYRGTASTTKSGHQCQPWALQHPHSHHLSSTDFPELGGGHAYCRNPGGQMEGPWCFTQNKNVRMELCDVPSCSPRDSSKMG
Chain of Human ROR1-ECD-his (human) (Q01973 30-406): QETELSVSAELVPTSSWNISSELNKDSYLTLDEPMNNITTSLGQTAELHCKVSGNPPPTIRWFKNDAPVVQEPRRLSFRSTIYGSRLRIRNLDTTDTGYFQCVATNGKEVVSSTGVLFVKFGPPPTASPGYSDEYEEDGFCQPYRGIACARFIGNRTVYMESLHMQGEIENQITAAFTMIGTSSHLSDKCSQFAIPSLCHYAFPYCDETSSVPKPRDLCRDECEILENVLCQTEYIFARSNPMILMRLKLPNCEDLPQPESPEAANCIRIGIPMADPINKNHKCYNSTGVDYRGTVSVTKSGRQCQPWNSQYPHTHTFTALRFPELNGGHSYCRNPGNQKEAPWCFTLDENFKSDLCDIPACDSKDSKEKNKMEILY

The substance “human Iso IgG1 (CrownBio, Cat#: C0001-4) (antibody)” gave an ELISA signal (called MFI) in assay [1] of 0.036. Moreover, the ELISA signal (called MFI) in the assay with hROR2ECD-his (human) was 0.041. Besides, in assay [2], the ADCC Cytotoxicity (%), Donor 1, 1 nM (negative control) amounted to 9.89%; the ADCC Cytotoxicity (%), Donor 1, 10 nM (negative control) is 10.4%; the ADCC Cytotoxicity (%), Donor 2, 1 nM (negative control) amounted to 10.8%; the ADCC Cytotoxicity (%), Donor 2, 10 nM (negative control) was determined as 10.5%. In assay [2], the ADCP, percentage of double-stained cells, 0.1 nM (control) is 6.79% and 5.59%; the ADCP, percentage of double-stained cells, 10 nM (control) was 6.53% and 7.46%. The same substance gave an MAX(MFI) in assay [3] of 140 MFI. The same substance showed an MAX(MFI) in assay [4] of 226 MFI. For the same substance, the MAX(MFI) in assay [5] came to 119 MFI.
